Molecular target: T1, complex I subunit ND1 (Yarrowia lipolytica) (Yarrowia lipolytica, UniProt Q9B6E8 1-341)
T1 sequence (looked up): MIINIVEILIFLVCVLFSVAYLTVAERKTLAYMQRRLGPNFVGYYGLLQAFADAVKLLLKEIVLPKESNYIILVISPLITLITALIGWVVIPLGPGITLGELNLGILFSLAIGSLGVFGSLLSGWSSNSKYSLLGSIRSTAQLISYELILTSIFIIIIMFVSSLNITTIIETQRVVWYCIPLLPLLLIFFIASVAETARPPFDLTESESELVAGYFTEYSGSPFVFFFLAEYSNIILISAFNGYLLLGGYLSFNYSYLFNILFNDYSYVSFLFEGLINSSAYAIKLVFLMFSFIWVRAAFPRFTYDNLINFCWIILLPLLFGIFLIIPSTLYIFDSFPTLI
Assay: cryo-EM structure

B1: complex I subunit ND6 (Yarrowia lipolytica) (natural protein, UniProt Q9B6E9 1-185, looked up)
chain: MMYLTYYFIEITIFLAILCTIFIISAKNPMVSILYMIALFVIAAMYLYLIGLGIFSLLYIMIYIGAIAVLFLFIITLLDINSTELSVKSNIRDLPLVLISLIVLTISGLMIYSNDSILINKLLEAFGNDYNTIITQDWFNIENTTLLTTIGNVLLTNNAFILLVLAIVLLLGIIGPISITMKHKE
B1: binds.

Reference: PMC8589321 (Science Advances, 2021)
